Source: patent US20060270596A1 (CENTRE NATIONAL DE LA RECHERCHE SCIENTIFIQUE CNRS, published 2006)

Tests used:
Test in all cases: in vivo interaction test: GFP-THAP1 mutant and myc-Par4DD co-expressed in primary human endothelial cells, confocal immunofluorescence
[1] = target: T1, THAP1-C2 deletion mutant (amino acids 120-213) (human, UniProt Q9NVV9 120-213)
T1 construct: Gal4 fusion, in vitro translation product or GFP fusion according to assay
T1 sequence: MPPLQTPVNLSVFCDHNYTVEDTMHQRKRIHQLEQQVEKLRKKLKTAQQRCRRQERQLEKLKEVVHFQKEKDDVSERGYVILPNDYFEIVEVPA
Description: (§1) To provide further evidence for a physiological interaction between THAP1 and Par4 in vivo interactions between THAP1 and PAR4 were investigated. For that purpose, confocal immunofluorescence microscopy was used to analyze the subcellular localization of epitope-tagged Par4DD in primary human endothelial cells transiently cotransfected with pEF-mycPar4DD eukaryotic expression vector and GFP or GFP-THAP1 expression vectors (pEGFP.C2 and pEGFP.C2-THAP1, respectively). To generate pEF-mycPar4DD, mycPar4DD (amino acids 250-342) was amplified by PCR using pGBKT7-Par4DD as template, with primers myc.BD7 (5′-[…]-3′) (SEQ ID NO: 195) and Par4.9 (5′-[…]-3′) (SEQ ID NO: 196), and cloned into the XbaI and NotI sites of the pEF-BOS expression vector (Mizushima and Nagata, Nucleic Acids Research, 18:5322, 1990). Primary human endothelial cells from umbilical vein (HUVEC, PromoCell, Heidelberg, Germany) were grown in complete ECGM medium (PromoCell, Heidelberg, Germany), plated on coverslips and transiently transfected in RPMI medium using GeneJammer transfection reagent according to manufacturer instructions (Stratagene, La Jolla, Calif., USA). Cells co-transfected with pEF-mycPar4DD and GFP-tagged expression constructs were allowed to grow for 24 h to 48 h on coverslips. Cells were washed twice with PBS, fixed for 15 min at room temperature in PBS containing 3.7% formaldehyde, and washed again with PBS prior to neutralization with 50 mM NH₄Cl in PBS for 5 min at room temperature. Following one more PBS wash, cells were permeabilized 5 min at room temperature in PBS containing 0.1% Triton-X100, and washed again with PBS. Permeabilized cells were then blocked with PBS-BSA (PBS with 1% bovine serum albumin) for 10′ and then incubated 2 hr at room temperature with mouse monoclonal antibody anti-myc epitope (mouse IgG1, 1/200, Clontech) diluted in PBS-BSA. Cells were then washed three times 5 min at room temperature in PBS-BSA, and incubated for 1 hr with Cy3 (red fluorescence)-conjugated goat anti-mouse (1/1000, Amersham Pharmacia Biotech) secondary antibodies, diluted in PBS-BSA. After extensive washing in PBS, samples were air dried and mounted in Mowiol. Images were collected on a Leica confocal laser scanning microscope.

[2] = target: T2, THAP1-C3 deletion mutant (amino acids 143-213) (human, UniProt Q9NVV9 143-213)
T2 construct: Gal4 fusion, in vitro translation product or GFP fusion according to assay
T2 sequence: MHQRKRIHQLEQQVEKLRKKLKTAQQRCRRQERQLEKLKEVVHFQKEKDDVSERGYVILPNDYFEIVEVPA
Description: as §1

[3] = target: T3, THAP1-N2 deletion mutant (amino acids 1-166) (human, UniProt Q9NVV9 1-166)
T3 construct: Gal4 fusion, in vitro translation product or GFP fusion according to assay
T3 sequence: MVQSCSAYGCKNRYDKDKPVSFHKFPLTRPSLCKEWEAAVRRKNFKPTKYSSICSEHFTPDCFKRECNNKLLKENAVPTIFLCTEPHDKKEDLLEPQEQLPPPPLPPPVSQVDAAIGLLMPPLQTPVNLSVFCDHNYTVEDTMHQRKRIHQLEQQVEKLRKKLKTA
Description: as §1

[4] = target: T4, THAP1-N3 deletion mutant (amino acids 1-192) (human, UniProt Q9NVV9 1-192)
T4 construct: Gal4 fusion, in vitro translation product or GFP fusion according to assay
T4 sequence: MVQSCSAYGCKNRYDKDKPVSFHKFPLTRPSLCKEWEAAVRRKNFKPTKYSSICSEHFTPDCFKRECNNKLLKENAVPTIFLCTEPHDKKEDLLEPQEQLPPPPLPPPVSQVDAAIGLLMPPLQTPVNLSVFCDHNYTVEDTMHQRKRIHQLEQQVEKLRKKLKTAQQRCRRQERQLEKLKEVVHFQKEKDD
Description: as §1

[5] = target: T5, THAP1-C1 deletion mutant (amino acids 90-213) (human, UniProt Q9NVV9 90-213)
T5 construct: Gal4 fusion, in vitro translation product or GFP fusion according to assay; also called THAP1-CL; THAP1ΔTHAP
T5 sequence: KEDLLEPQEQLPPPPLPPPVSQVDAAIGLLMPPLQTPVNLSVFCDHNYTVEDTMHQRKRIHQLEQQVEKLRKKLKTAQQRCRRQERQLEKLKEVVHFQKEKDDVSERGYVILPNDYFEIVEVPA
Description: as §1

B1: Par4 leucine zipper/death domain (Par4DD, amino acids 250-342) (other)
chain: GFPRYNRDANVSGTLVSSSTLEKKIEDLEKEVVTERQENLRLVRLMQDKEEMIGKLKEEIDLLNRDLDDIEDENEQLKQENKTLLKVVGQLTR
notes: Gal4 fusion in two-hybrid; also called myc-Par4DD
binding result [1]: binds
binding result [2]: binds
binding result [3]: no binding
binding result [4]: binds
binding result [5]: binds
